The values below come from paper PMC11882435, “Thermodynamic modeling of RsmA - mRNA interactions capture novel direct binding across the Pseudomonas aeruginosa transcriptome”.

Numbering of substitutions follows the chain as printed.

The target in this data set is RsmA (Pseudomonas aeruginosa, UniProt O69078 1-61). The data set can be described thus: filter binding; affinity unchanged vs WT; Filter binding: 10 mM Tris-HCl pH 7.5, 100 mM KCl, 10 mM MgCl2, 10 mM DTT, 10 ug/mL heparin, RNase inhibitor, 0.5 nM RNA, 37 C 30 min; Hill coefficient 2. Particulars: protein: recombinant; expressed in E. coli BL21; chain copies: 2; label: 5'-32P.
RsmA, sequence (O69078 whole entry): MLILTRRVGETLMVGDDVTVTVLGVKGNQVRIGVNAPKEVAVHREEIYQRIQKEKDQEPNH

B1: mvaT BS1 mutant (ssRNA)
RNA: GGGAUAAUACUUACAUGCCCGCCACCGCCACUCAGCACAGACAAGGUACCUGACAUGUCCCUGAUCAACGAAUAUCGCGCCCACACAGAAGCCAUCAAGGAACUUCAGGAGCGCCUGAAGUCCCUGGAACAAGACGACAAACUGAAAAAAGAAC
For B1, the binding result is listed as “binds”.

B2: mvaT BS3 mutant (ssRNA)
RNA: B1 RNA with C82A, A83C, C84G, A85G, C86A, G126C, G127U, A128G
For the molecule B2, the binding result is listed as “binds”.

B3: mvaT BS2 mutant (ssRNA)
RNA: B1 RNA with C82A, A83C, C84G, A85G, C86A, A97C, G99A, G100U, A101U
For B3, the binding result was “binds”.

B4: rsaL BS1 mutant (ssRNA)
RNA: GGGAUAAUAAACGUCCGAAAAGAUCAGAGCAAUGGCUUCACACGAGAGAACACAGCCCCAAAACAUGGCCUUCCGGGCAAAGGCCACCCGCACCGCCCGCACUGAAAGCCAGGAAACUUUCUGGAGCCGCU
On to B4, for which the binding result is “binds”.

B5: rsaL BS2 mutant (ssRNA)
RNA: B4 RNA with C100A, A101C, C102G, U103G, G112U, G113A, A114C
Turning to B5, the binding result is reported as “binds”.
